Patent publication US20190015483A1 (CSL BEHRING RECOMBINANT FACILITY, published 2019)
Where a chain is given by its changes, count along the chain named. Numbers in names are those of the source.

T1: recombinant Factor VIII (CSL627, rVIII-SingleChain) (Homo sapiens (Human), UniProt P00451 20-2351)
T1 construct: also called FVIII
T1 sequence: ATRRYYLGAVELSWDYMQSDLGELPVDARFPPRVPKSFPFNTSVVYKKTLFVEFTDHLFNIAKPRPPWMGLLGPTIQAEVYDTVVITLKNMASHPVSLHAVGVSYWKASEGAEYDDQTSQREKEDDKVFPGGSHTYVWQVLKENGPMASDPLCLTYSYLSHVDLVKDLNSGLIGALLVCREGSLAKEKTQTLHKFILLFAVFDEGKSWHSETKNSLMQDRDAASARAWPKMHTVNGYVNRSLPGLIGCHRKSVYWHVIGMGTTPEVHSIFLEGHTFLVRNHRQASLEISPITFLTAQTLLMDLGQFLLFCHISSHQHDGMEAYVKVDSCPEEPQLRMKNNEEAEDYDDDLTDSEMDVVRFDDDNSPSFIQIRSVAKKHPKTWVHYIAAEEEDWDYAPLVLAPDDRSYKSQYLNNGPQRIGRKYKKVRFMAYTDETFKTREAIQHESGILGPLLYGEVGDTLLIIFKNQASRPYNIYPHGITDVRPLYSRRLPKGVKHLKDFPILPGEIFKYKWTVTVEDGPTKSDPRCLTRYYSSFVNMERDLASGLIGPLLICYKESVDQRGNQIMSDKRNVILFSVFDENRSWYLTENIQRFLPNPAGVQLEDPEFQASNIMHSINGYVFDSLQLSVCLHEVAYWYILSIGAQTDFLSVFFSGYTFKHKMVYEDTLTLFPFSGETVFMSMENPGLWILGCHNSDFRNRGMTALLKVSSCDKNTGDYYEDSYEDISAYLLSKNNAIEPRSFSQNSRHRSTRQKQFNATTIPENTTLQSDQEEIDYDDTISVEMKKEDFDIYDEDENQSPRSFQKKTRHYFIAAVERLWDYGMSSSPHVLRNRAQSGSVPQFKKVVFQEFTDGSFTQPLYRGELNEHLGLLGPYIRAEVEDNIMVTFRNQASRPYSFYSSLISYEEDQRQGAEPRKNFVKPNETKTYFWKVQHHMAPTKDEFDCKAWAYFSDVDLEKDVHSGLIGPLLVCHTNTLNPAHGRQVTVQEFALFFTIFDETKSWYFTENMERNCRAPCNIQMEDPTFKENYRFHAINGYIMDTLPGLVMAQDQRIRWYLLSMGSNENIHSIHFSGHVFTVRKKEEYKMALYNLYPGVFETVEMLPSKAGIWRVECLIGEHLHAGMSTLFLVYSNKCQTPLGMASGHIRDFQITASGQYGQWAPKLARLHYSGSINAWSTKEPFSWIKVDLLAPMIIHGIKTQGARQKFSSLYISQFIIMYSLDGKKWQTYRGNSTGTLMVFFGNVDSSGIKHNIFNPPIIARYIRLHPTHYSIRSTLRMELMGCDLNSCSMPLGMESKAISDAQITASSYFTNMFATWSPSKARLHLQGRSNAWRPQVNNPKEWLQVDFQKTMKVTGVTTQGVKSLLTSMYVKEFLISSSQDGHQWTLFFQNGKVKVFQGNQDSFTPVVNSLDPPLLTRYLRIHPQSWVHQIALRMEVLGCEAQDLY

T2: recombinant Factor VIII (CSL627, rVIII-SingleChain) (Homo sapiens (Human), UniProt P00451 20-2351)
T2 construct: also called FVIII
T2 sequence: T1 sequence

B1: Hu-vWF[764-1270]-8His S764P-K773A (other)
chain: PLSCRPPMVALVCPADNLRAEGLECTKTCQNYDLECMSMGCVSGCLCPPGMVRHENRCVALERCPCFHQGKEYAPGETVKIGCNTCVCRDRKWNCTDHVCDATCSTIGMAHYLTFDGLKYLFPGECQYVLVQDYCGSNPGTFRILVGNKGCSHPSVKCKKRVTILVEGGEIELFDGEVNVKRPMKDETHFEVVESGRYIILLLGKALSVVWDRHLSISVVLKQTYQEKVCGLCGNFDGIQNNDLTSSNLQVEEDPVDFGNSWKVSSQCADTRKVPLDSSPATCHNNIMKQTMVDSSCRILTSDVFQDCNKLVDPEPYLDVCIYDTCSCESIGDCACFCDTIAAYAHVCAQHGKVVTWRTATLCPQSCEERNLRENGYECEWRYNSCAPACQVTCQHPEPLACPVQCVEGCHAHCPPGKILDELLQTCVDPEDCPVCEVAGRRFASGKKVTLNPSDPEHCQICHCDVVNLTCEACQEPGGLVVPPTDAPVSPTTLYVEDISEPPLHDFHHHHHHHH
B2: Hu-vWF[764-1270]-8His S766Y-R768S (other)
chain: B1 chain with P1S, S3Y, R5S, A10K
B3: Hu-vWF[764-1270]-8His S764P-K773P (other)
chain: B1 chain with A10P
B4: Hu-vWF[764-1270]-8His S764P-K773I (other)
chain: B1 chain with A10I
B5: Hu-vWF[764-1270]-8His S764P-K773Q (other)
chain: B1 chain with A10Q
B6: Hu-vWF[764-1270]-8His S764P-K773H (other)
chain: B1 chain with A10H
B7: Hu-vWF[764-1270]-8His S764P-L765I (other)
chain: B1 chain with L2I, A10K
B8: Hu-vWF[764-1270]-8His S764P-K773F (other)
chain: B1 chain with A10F
B9: Hu-vWF[764-1270]-8His S764P-L765Q (other)
chain: B1 chain with L2Q, A10K
B10: Hu-vWF[764-1270]-8His S764P-K773W (other)
chain: B1 chain with A10W
B11: Hu-vWF[764-1270]-8His S764P-K773N (other)
chain: B1 chain with A10N
B12: Hu-vWF[764-1270]-8His S764P-L765F (other)
chain: B1 chain with L2F, A10K
B13: Hu-vWF[764-1270]-8His S764P-K773E (other)
chain: B1 chain with A10E
B14: Hu-vWF[764-1270]-8His S764P-K773V (other)
chain: B1 chain with A10V
B15: Hu-vWF[764-1270]-8His S766Y-R768W (other)
chain: B1 chain with P1S, S3Y, R5W, A10K
B16: Hu-vWF[764-1270]-8His S764P-K773M (other)
chain: B1 chain with A10M
B17: Hu-vWF[764-1270]-8His S764P-L765T (other)
chain: B1 chain with L2T, A10K
B18: Hu-vWF[764-1270]-8His S764P-L765P (other)
chain: B1 chain with L2P, A10K
B19: Hu-vWF[764-1270]-8His S764P-K773L (other)
chain: B1 chain with A10L
B20: Hu-vWF[764-1270]-8His S766Y-R768T (other)
chain: B1 chain with P1S, S3Y, R5T, A10K
B21: Hu-vWF[764-1270]-8His S764P-L765M (other)
chain: B1 chain with L2M, A10K
B22: Hu-vWF[764-1270]-8His S764P-K773D (other)
chain: B1 chain with A10D
B23: Hu-vWF[764-1270]-8His S766Y-R768V (other)
chain: B1 chain with P1S, S3Y, R5V, A10K
B24: Hu-vWF[764-1270]-8His S764P-K773S (other)
chain: B1 chain with A10S
B25: Hu-vWF[764-1270]-8His S764P-L765A (other)
chain: B1 chain with L2A, A10K
B26: Hu-vWF[764-1270]-8His S764P-K773R (other)
chain: B1 chain with A10R
B27: Hu-vWF[764-1270]-8His S766Y-R768Y (other)
chain: B1 chain with P1S, S3Y, R5Y, A10K
B28: Hu-vWF[764-1270]-8His S764P-K773T (other)
chain: B1 chain with A10T
B29: Hu-vWF[764-1270]-8His S764P-K773G (other)
chain: B1 chain with A10G
B30: Hu-vWF[764-1270]-8His S764P-L765H (other)
chain: B1 chain with L2H, A10K
B31: Hu-vWF[764-1270]-8His S764P-K773Y (other)
chain: B1 chain with A10Y

What was measured:
[1] = target: T1, recombinant Factor VIII (CSL627, …); assay: SPR, anti-His capture
Experimental: Binding kinetics were investigated by surface plasmon resonance using a Biacore 4000 biosensor at 37° C. Each mutant was captured from cell culture medium to a density of 40-150 RU on a CM-5 sensor chip pre-immobilised with anti-His antibody (14,000 RU). In an initial screening study, FVIII was injected over the captured mutants for 5 minutes at 1 nM and dissociation monitored for 5 minutes.
All sensorgrams were double referenced by subtraction of signals from a reference spot (containing only immobilised anti His antibody) and from a blank injection. Binding kinetics were determined by fitting the double referenced sensorgrams to a 1:1 kinetic model.

[2] = target: T2, recombinant Factor VIII (CSL627, …); assay: SPR, anti-His capture, FVIII injected, 37 C
Summary of the method: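 Capture 40-150 RU mutant from medium on anti-His (14,000 RU) CM-5; 1 nM FVIII, 5 min on / 5 min off; reference spot + blank subtracted; 1:1 fit.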

| Binder | Kd [1] [nM] | koff [1] [s⁻¹] | kon [1] [M⁻¹ s⁻¹] | Kd [2] [nM] | koff [2] [s⁻¹] | kon [2] [M⁻¹ s⁻¹] |
| --- | --- | --- | --- | --- | --- | --- |
| B1 | 0.0297 | 0.000189 | 6.37e+06 | – | – | – |
| B2 | – | – | – | 0.243 | 0.00129 | 5.33e+06 |
| B3 | 0.0222 | 0.000501 | 2.26e+07 | – | – | – |
| B4 | 0.00943 | 0.000169 | 1.79e+07 | – | – | – |
| B5 | 0.0288 | 0.000128 | 4.44e+06 | – | – | – |
| B6 | 0.0386 | 0.000636 | 1.65e+07 | – | – | – |
| B7 | 0.0118 | 9.52e-05 | 8.08e+06 | – | – | – |
| B8 | 0.121 | 0.00123 | 1.02e+07 | – | – | – |
| B9 | 0.88 | 0.00714 | 8.12e+06 | – | – | – |
| B10 | 0.257 | 0.00321 | 1.25e+07 | – | – | – |
| B11 | 0.0631 | 0.000347 | 5.5e+06 | – | – | – |
| B12 | 0.0373 | 0.000632 | 1.69e+07 | – | – | – |
| B13 | 0.0765 | 0.00515 | 6.73e+07 | – | – | – |
| B14 | 0.0101 | 0.000157 | 1.55e+07 | – | – | – |
| B15 | – | – | – | 0.213 | 0.00094 | 4.42e+06 |
| B16 | 0.0108 | 0.00017 | 1.58e+07 | – | – | – |

| Binder | Kd [1] [nM] | koff [1] [s⁻¹] | kon [1] [M⁻¹ s⁻¹] | Kd [2] [nM] | koff [2] [s⁻¹] | kon [2] [M⁻¹ s⁻¹] |
| --- | --- | --- | --- | --- | --- | --- |
| B17 | 0.634 | 0.00882 | 1.39e+07 | – | – | – |
| B18 | 0.0238 | 0.000242 | 1.02e+07 | – | – | – |
| B19 | 1.24 | 0.000572 | 460000 | – | – | – |
| B20 | – | – | – | 0.256 | 0.00143 | 5.59e+06 |
| B21 | 0.0243 | 0.000237 | 9.76e+06 | – | – | – |
| B22 | 0.136 | 0.0024 | 1.77e+07 | – | – | – |
| B23 | – | – | – | 0.203 | 0.000918 | 4.51e+06 |
| B24 | 0.0142 | 0.000306 | 2.16e+07 | – | – | – |
| B25 | 0.906 | 0.0278 | 3.07e+07 | – | – | – |
| B26 | 0.0116 | 7.42e-05 | 6.39e+06 | – | – | – |
| B27 | – | – | – | 0.277 | 0.00187 | 6.74e+06 |
| B28 | 0.016 | 7.5e-05 | 4.68e+06 | – | – | – |
| B29 | 0.0436 | 0.000762 | 1.75e+07 | – | – | – |
| B30 | 0.555 | 0.00642 | 1.16e+07 | – | – | – |
| B31 | 0.0835 | 0.00136 | 1.63e+07 | – | – | – |
